Experimental findings from patent publication US20180030119A1 (published 2018) are described below.

In assay [1] the target is F protein of clinical RSV isolate #1, on virus. Description: cell-based or functional assay.
Assay [2] concerns the target T1, RSV F protein as coated in the ELISA of Example 3 (RSV-EIA antigen by the legend of FIG. 6) (RSV, strain ).
T1 construct: also called total RSV antigen (EIA-antigen)
Description: ELISA, serial dilutions of purified AR201 on coated antigen, anti-human IgG-HRP, four parameter fit. A general note: In an ELISA, binding on a coated surface is turned into a signal by an enzyme label.

B1: AR201 (antibody, V domains shown)
VH: LVQLRESGPGLVKPSQTLSLTCSVSGASINLYDYFWGWIRQAPGRGPEWIGYISGSTYYNPSLKRRATISVDTSKSQFFLELTSVTAADTAVYYCARDVGWGPQYYYGLDVWGQGTTVTVSS
VL: DLVLTQSPGTLSLSPGERATLSCRASHSVQSTSLAWYQQKRGQAPRLLIYGGSSRVTGIPDRFSGSGSGTDFTLTISRLEPEDFAVYYCQQSDRSPPITFGQGTRLEMK
notes: Fully human IgG1, kappa; 1 and 3 are used here; also called KBRV201
What is called EC50 is the concentration needed to bring the measured effect to its halfway point. Low readings indicate a more potent agent, high ones a less potent agent. As to B1, the “IC50 of neutralisation, infectivity assay on Hep2 cells” value in assay [1] is 1700 nM. Moreover, it took 0.103 nM to reach a half-maximal effect in assay [2] (EC50).
